Biological target: T1, BSU Pol I (BSU polymerase) (Bacillus subtilis) (UniProt O34996)
T1 sequence: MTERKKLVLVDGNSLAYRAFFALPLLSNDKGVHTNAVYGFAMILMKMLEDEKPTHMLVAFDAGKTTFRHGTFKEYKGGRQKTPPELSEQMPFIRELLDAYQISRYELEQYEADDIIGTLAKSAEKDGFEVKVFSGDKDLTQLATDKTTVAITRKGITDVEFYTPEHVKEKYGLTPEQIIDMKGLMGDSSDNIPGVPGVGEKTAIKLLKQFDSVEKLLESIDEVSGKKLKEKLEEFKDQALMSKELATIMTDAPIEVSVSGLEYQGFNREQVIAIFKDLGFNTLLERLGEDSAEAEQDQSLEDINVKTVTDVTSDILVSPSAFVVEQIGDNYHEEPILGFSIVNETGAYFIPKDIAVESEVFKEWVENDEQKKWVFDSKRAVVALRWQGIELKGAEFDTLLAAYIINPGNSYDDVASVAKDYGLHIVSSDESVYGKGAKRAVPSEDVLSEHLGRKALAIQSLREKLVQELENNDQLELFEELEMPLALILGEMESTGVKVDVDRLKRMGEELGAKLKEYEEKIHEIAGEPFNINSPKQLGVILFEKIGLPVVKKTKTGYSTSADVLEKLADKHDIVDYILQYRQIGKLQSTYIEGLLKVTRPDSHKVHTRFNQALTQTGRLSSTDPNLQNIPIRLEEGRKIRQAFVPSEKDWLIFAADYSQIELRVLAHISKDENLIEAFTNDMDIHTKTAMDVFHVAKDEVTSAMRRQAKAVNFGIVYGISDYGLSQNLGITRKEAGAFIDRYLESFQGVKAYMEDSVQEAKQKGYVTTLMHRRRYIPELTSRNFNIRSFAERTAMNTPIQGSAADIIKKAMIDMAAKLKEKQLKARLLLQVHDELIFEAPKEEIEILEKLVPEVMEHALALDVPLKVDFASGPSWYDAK
Assay: stopped-flow fluorescence quenching
Settings: 375 mM NaCl, 10 mM MgSO4, fluorescein-modified thymidine in primer, five bases from the incorporation site, Stopped flow: 20 mM ACES pH 7.4, 62.5-325 mM NaCl (Methods; 375 mM in Results), 10 mM MgSO4, 1 uM acetylated BSA, 0.02% Tween-20, 1 mM TCEP, 600 nM enzyme …

GCTTGCACAGGGCCTCGAC / CGTTAGTAAGGTCGAGGCCCTGTGCAAGC [stopped-flow primer/template duplex]
binding signal (fold signal over mismatch) (correct nucleotide dCTP 100 uM): 3.5 | binding signal (reference signal (correct is 3.5-fold)) (mismatch nucleotide dATP): 1
